B1: SL18 (Fab, V domains shown)
VH: EVQLVQSGTEVKKPGESLKISCKISGYSFTAYWIAWVRQMPGKGLEWMGMIWPPDADARYSPSFQGQVTFSVDKSISTAYLQWHSLKTSDTAVYYCARLYSGSYSPWGQGTLVTVSS
VL: ELVLTQSPGTLSLSPGERATLSCRASQSIFNYVAWYQQKPGQAPRLLIYDASNRATGIPARFSGSGSGTDFTLTISSLEPEDFAVYYCQQRSKWPPTWTFGQGTRVDIKR
notes: Human Fab (VH+CH1, VL+CLk); tested on phage and as soluble Fab purified from E. coli; also called SL18 Fab
B2: SA139 (Fab, V domains shown)
VH: EVQLLQSGAEVKEPGASVKVSCKASGYTFSSYGISWVRQAPGQGLEWVGRINTYNGNTGYAQRLQGRVTMTTDTSTSIAYMEVRSLRSDDTAVYYCARLGHCQRGICSDALDTWGQGTMVTVSS
VL: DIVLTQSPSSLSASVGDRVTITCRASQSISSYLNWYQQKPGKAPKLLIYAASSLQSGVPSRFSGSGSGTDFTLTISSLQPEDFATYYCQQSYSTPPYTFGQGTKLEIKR
notes: Human Fab (VH+CH1, VL+CLk); also called SA139 Fab
B3: SA141 (Fab, V domains shown)
VH: QVQLVQSGGGLVQPGGSLRLSCAASGFTFSSYAMSWVRQAPGKGLEWLSVISHDGGFQYYADSVKGRFTVSRDNSKNTLYLQMNSLRAEDTAVYYCARAGWLRQYGMDVWGQGTLVTVSS
VL: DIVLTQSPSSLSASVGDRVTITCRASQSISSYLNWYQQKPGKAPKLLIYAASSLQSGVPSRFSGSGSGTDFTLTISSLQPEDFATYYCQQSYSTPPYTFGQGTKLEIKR
notes: also called SA141 Fab
B4: SL310 (Fab, V domains shown)
VH: QVQLVQSGGGPVKPGGSLRLSCAASGFMFRAYSMNWVRQAPGKGLEWVSSISSSGRYIHYADSVKGRFTISRDNAKNSLYLQMNSLRAEDTAVYYCARETVMAGKALDYWGQGTLVTVSS
VL: ELVLTQSPGTLSLSPGERATLSCRASQSVSSSSLAWYQQKPGQAPRLLIYGASSRATGIPDRFSGSGSGTDFTLTISSLQPEDAATYYCQKYSSYPLTFGQGTKLEIKR
notes: Human Fab (VH+CH1, VL+CLk); tested on phage and as soluble Fab purified from E. coli; also called SL310 Fab
B5: SL301 (Fab, V domains shown)
VH: QVQLVQSGGGPVKPGGSLRLSCAASGFMFRAYSMNWVRQAPGKGLEWVSSISSSGRYIHYADSVKGRFTISRDNAKNSLYLQMNSLRAEDTAVYYCARETVMAGKALDYWGQGTLVTVSS
VL: ELVLTQSPGTLSLSPGERATLSCRASETVSSRQLAWYQQKPGQAPRLLIYGASSRATGIPDRFSGSGSGTDFTLTISRLEPEDSAVFYCQQYGSSPRTFGGGTKLEIKR
notes: Human Fab (VH+CH1, VL+CLk); tested on phage and as soluble Fab purified from E. coli; also called SL301 Fab
B6: SA140 (Fab, V domains shown)
VH: QVQLVQSGGGVVQTGGSLRLSCAASGFTFRNYGIHWVRQAPGKGLEWVASISYDGSNKYYADSVKGRFTISRDNSRNTVHVQMDSLRGGDTAVYYCARDVHYYGSGSYYNAFDIWGQGTLVTVSS
VL: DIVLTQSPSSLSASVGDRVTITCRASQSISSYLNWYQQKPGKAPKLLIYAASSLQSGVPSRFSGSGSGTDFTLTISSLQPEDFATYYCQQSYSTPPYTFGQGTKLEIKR
notes: also called SA140 Fab

Legend:
[1] = target: T1, bovine serum albumin (bovine, UniProt P02769 25-607); experiment: monoclonal phage ELISA at pH 6, antigen coated at 5 ug/ml, anti-human kappa-HRPO, A450
T1 construct: also called BSA; bovine SA
T1 sequence (P02769 25-607 limits assumed): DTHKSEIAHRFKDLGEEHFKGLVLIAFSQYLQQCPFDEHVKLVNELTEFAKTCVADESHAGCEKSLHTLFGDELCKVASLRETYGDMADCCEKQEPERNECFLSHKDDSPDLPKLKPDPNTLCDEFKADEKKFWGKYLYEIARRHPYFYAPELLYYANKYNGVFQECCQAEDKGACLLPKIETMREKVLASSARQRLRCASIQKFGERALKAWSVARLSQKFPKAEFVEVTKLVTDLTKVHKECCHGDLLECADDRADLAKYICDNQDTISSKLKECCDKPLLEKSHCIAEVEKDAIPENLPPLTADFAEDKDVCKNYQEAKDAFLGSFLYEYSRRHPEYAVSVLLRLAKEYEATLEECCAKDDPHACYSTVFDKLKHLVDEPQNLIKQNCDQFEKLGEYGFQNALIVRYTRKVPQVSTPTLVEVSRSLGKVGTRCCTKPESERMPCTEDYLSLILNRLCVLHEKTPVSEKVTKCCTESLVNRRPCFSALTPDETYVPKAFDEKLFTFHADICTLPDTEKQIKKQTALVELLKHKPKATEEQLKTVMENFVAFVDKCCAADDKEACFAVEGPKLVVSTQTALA
Method: (§1) For the monoclonal phage ELISA, the recombinant phage was obtained from positive E. coli clones by phage rescue, and ˜10⁸ CFU/well were added to MaxiSorb ELISA plates (Nunc, Roskilde, Denmark) that were coated with 5 μg/ml HSA, RSA, MSA or BSA. The phage was allowed to bind to the antigens either at pH 6 or at pH 7.4 for 1 h at 37° C. A goat anti-human kappa L Ab-conjugated with HRPO (Sigma-Aldrich) was used as a secondary antibody. The binding signals were visualized with a TMB substrate (BD Science, San Jose, Calif., USA), and the absorbance at 450 nm was measured using an ELISA reader (Bio-Rad, Hercules, Calif., USA). The data represent the average of three experiments standard deviation. For the conventional ELISA, the various antigens [human SA, rat SA, mouse SA, monkey SA (Alpha diagnositic Intl., San Antonio, Tex., USA), canine SA (CUSABIO, Wuhan, Hubei, China). rabbit SA (Sigma-Aldrich), epidermal growth factor receptor (EGFR) (R&D systems, Minneapolis, Minn., USA), epithelial cell adhesion molecule (EpCAM) (R&D systems), IL-15 receptor a (IL-15Ra) (R&D systems), IL-10 (eBioscience, San Diego, Calif., USA), CD16a (R&D systems), c-MET (Sinobiological, Beijing, China)] at 5 μg/ml concentrations were immobilized on the microtiter plates, and the Fab molecules were allowed to bind to the antigens, and detected as above. To determine the concentration of soluble Fab or Fab-hGH fusion proteins, a sandwich ELISA was performed using a mouse anti-human IgG Fd mAb (AprilBio) as a capturing Ab and the goat anti-human kappa L chain pAb-HRPO conjugated (Sigma-Aldrich) as a detecting antibody. The human Fab fragment (Bethyl, Montgomery, Tex., USA) with a known concentration was used to draw the standard curve. For detecting the hGH domain, T-20, a goat pAb specific for the C-terminus of the hGH (Santacruz Biotechnology, Dallas, Tex., USA) and NYThGH, a mouse mAb specific for full-length hGH (Prospec, East Brunswick, N.J., USA) were used followed by a rabbit anti-goat IgG pAb-HRPO conjugated (Sigma-Aldrich) or a goat anti-mouse IgG pAb-HRPO conjugated (Sigma-Aldrich), respectively as a secondary antibody. A goat anti-human GCSF pAb (R&D Systems) was used to detecting the G-CSF domain, and a rabbit anti-human IFN-β pAb (PEPROTECH, Rocky Hill, USA) was used to detect the IFN-β domain.

[2] = target: T2, human serum albumin (human, UniProt P02768 25-609); experiment: monoclonal phage ELISA at pH 7.4: Fab on phage, about 10^8 CFU/well, on antigen coated at 5 ug/ml; anti-human kappa-HRPO, TMB, A450
T2 construct: Bought protein; also called HSA; human SA
Method: as §1

[3] = target: T3, rat serum albumin (rat, UniProt P02770 25-608); experiment: as above
T3 construct: Bought protein; also called RSA; rat SA
T3 sequence (P02770 25-608 limits assumed): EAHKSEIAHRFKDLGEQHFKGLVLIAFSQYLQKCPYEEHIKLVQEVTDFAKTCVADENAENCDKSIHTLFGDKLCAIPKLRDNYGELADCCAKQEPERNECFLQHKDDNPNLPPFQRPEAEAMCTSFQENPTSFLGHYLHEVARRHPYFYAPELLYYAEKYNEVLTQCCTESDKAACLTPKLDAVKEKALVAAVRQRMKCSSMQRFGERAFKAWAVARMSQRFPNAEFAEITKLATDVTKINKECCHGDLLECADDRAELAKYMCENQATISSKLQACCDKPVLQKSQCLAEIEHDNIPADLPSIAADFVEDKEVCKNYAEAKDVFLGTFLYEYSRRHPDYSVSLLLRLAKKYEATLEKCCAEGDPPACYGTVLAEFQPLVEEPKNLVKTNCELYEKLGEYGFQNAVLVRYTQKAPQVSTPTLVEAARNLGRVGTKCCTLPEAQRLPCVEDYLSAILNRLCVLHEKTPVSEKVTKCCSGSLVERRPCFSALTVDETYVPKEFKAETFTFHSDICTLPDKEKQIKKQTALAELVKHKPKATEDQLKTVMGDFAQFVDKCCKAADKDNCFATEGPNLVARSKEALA
Method: as §1

[4] = target: T4, mouse serum albumin (mouse, UniProt P07724 25-608); experiment: as above
T4 construct: Bought protein; also called MSA; mouse SA
T4 sequence (P07724 25-608 limits assumed): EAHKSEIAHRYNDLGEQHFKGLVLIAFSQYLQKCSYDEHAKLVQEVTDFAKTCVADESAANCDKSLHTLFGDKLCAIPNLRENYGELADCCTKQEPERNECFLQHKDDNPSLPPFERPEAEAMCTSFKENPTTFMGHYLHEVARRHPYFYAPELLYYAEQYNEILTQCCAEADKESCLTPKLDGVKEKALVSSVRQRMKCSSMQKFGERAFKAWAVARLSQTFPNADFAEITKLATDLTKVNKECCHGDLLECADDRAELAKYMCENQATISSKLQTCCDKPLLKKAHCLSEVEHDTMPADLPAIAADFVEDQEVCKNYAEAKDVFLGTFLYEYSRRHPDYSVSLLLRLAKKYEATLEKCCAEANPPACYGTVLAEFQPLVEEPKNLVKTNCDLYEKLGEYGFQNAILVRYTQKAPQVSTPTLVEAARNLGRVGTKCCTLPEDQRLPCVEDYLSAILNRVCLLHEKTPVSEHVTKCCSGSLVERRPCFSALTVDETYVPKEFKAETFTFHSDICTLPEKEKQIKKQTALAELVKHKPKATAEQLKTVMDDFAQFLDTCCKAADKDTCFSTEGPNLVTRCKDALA
Method: as §1

[5] = target: T3, rat serum albumin; experiment: monoclonal phage ELISA at pH 7.4, antigen coated at 5 ug/ml, anti-human kappa-HRPO, A450
Method: as §1

[6] = target: T4, mouse serum albumin; experiment: as above
Method: as §1

[7] = target: T1, bovine serum albumin; experiment: as above
Method: as §1

[8] = target: T3, rat serum albumin; experiment: monoclonal phage ELISA at pH 6, antigen coated at 5 ug/ml, anti-human kappa-HRPO, A450
Method: as §1

[9] = target: T4, mouse serum albumin; experiment: as above
Method: as §1

[10] = target: T2, human serum albumin; experiment: ELISA at pH 6.0: purified soluble Fab titrated on antigen coated at 5 ug/ml; anti-human kappa L chain pAb-HRPO, TMB, A450
Method: (§2) For the monoclonal phage ELISA, the recombinant phage was obtained from positive E. coli clones by phage rescue, and ˜10⁸ CFU/well were added to MaxiSorb ELISA plates (Nunc, Roskilde, Denmark) that were coated with 5 μg/ml HSA, RSA, MSA or BSA. The phage was allowed to bind to the antigens either at pH 6 or at pH 7.4 for 1 h at 37° C. A goat anti-human kappa L Ab-conjugated with HRPO (Sigma-Aldrich) was used as a secondary antibody. The binding signals were visualized with a TMB substrate (BD Science, San Jose, Calif., USA), and the absorbance at 450 nm was measured using an ELISA reader (Bio-Rad, Hercules, Calif., USA). The data represent the average of three experiments standard deviation. For the conventional ELISA, the various antigens [human SA, rat SA, mouse SA, monkey SA (Alpha diagnositic Intl., San Antonio, Tex., USA), canine SA (CUSABIO, Wuhan, Hubei, China). rabbit SA (Sigma-Aldrich), epidermal growth factor receptor (EGFR) (R&D systems, Minneapolis, Minn., USA), epithelial cell adhesion molecule (EpCAM) (R&D systems), IL-15 receptor a (IL-15Ra) (R&D systems), IL-10 (eBioscience, San Diego, Calif., USA), CD16a (R&D systems), c-MET (Sinobiological, Beijing, China)] at 5 μg/ml concentrations were immobilized on the microtiter plates, and the Fab molecules were allowed to bind to the antigens, and detected as above. […]

[11] = target: T3, rat serum albumin; experiment: as above
Method: as §2

[12] = target: T2, human serum albumin; experiment: ELISA at pH 7.4: purified soluble Fab titrated on antigen coated at 5 ug/ml; anti-human kappa L chain pAb-HRPO, TMB, A450
Method: as §2

[13] = target: T3, rat serum albumin; experiment: as above
Method: as §2

[14] = target: T4, mouse serum albumin; experiment: monoclonal phage ELISA at pH 6: Fab on phage, about 10^8 CFU/well, on antigen coated at 5 ug/ml; anti-human kappa-HRPO, TMB, A450
Method: as §2

Binder | binding result [1] | binding result [2] | binding result [3] | binding result [5] | binding result [6] | further results
B1 | no binding | binds | binds |  |  | binding result [4]: binds
B2 |  | binds |  | no binding | no binding | binding result [7]: no binding
B3 | no binding | binds |  |  |  | binding result [8]: no binding; binding result [9]: no binding
B4 | no binding |  |  |  |  | EC50 (read off the curve) [10]: ~0.1 µg/mL; EC50 (read off the curve) [11]: ~0.6 µg/mL; EC50 (read off the curve) [12]: ~0.3 µg/mL; EC50 (read off the curve) [13]: ~0.2 µg/mL; binding result [14]: binds
B5 | no binding | binds | binds |  |  | 
B6 | no binding |  |  | no binding | no binding | 
